“And” between values parts separate entries of the source, which are not always exact repeats. Equal entries are not always repeated.
Test system: MALASSEZIA GLOBOSA
Assay: Inhibition of Malassezia globosa growth, colony count (UFC/ml) on Dixon's Agar
Assay type: cell-based
Details: for dil 10X colony count: 200 μl of suspension diluted 10X on Petri dish; for dil 10X colony count / X50 (calculation made based on the dilution): three replicates; for AVERAGE: average of three replicates; for % reduction of Malassezia globosa cells growth (% increase of antimycotic activity): compared to CICLOPIROXOLAMINE alone; for X50 (calculation made based on the dilution): dil 10X count x50
Protocol: To assess the capacity of the LACTOFERRIN to enhance the antimycotic action of the CIPROPIROXOLAMIN, a suspension of a MALASSEZIA GLOBOSA STRAIN is inoculated on a specific culture medium and the capacity of the compounds to inhibit the mycotic growth is observed, by counting of the UFC/ml.
As first approach, the two compounds are tested at the concentration of 1:500 and, subsequently, diluted in culture medium at 2 decreasing concentrations (10× and 100×) in order to visualize the individual activities. Then in order to evaluate the capacity of the LACTOFERRIN to increase the antimycotic effect of the CICLOPIROXOLAMIN, the same test was carried out on the mix of the two active ingredients at different ratios (1:2 and 1:5).
Each test was performed three times and the incubation times were 1 and 4 hours respectively.
Based on the results obtained, the best dilution for the execution of the tests was the 10× dilution and both the incubation times (1 hour and 4 hours) were taken into consideration since the experimental conditions permitted an accurate count to be carried out of the colonies on the Petri dishes.
The microorganism used is MALASSEZIA GLOBOSA.
The microorganisms were cultured in specific culture medium (Dixon's Agar) until reaching a concentration of approximately […] per ml. Aliquots of 1 ml of this inoculum were then taken to which were added respectively: • Ciclopiroxolamine 1:500 • Lactoferrin 1:500 • Mixture 1:2 Ciclopiroxolamine:lactoferrin • Mixture 1:5 Ciclopiroxolamine:lactoferrin
As positive control, the untreated inoculum was used (MALASSEZIA and diluting liquid), as negative controls the two active ingredients in diluting liquid.
After incubations of 1 hour and 4 hours respectively, aliquots of 200 μl of each suspension were spread on Petri dishes.
For each treatment, the test was carried out three times and for 3 different dilutions (non diluted suspension (TQ), dilution 10× and dilution 100×).
The 54 dishes obtained were then examined, after incubation of 5-6 days and the microbial load of each specimen was calculated (UFC/ml).
The % increase of the antimycotic property corresponds to the % reduction of the growth of Malassezia Globosa

B1: Lactoferrin (protein, UniProt P02788 20-710, looked up)
Lactotransferrin: GRRRSVQWCAVSQPEATKCFQWQRNMRKVRGPPVSCIKRDSPIQCIQAIAENRADAVTLDGGFIYEAGLAPYKLRPVAAEVYGTERQPRTHYYAVAVVKKGGSFQLNELQGLKSCHTGLRRTAGWNVPIGTLRPFLNWTGPPEPIEAAVARFFSASCVPGADKGQFPNLCRLCAGTGENKCAFSSQEPYFSYSGAFKCLRDGAGDVAFIRESTVFEDLSDEAERDEYELLCPDNTRKPVDKFKDCHLARVPSHAVVARSVNGKEDAIWNLLRQAQEKFGKDKSPKFQLFGSPSGQKDLLFKDSAIGFSRVPPRIDSGLYLGSGYFTAIQNLRKSEEEVAARRARVVWCAVGEQELRKCNQWSGLSEGSVTCSSASTTEDCIALVLKGEADAMSLDGGYVYTAGKCGLVPVLAENYKSQQSSDPDPNCVDRPVEGYLAVAVVRRSDTSLTWNSVKGKKSCHTAVDRTAGWNIPMGLLFNQTGSCKFDEYFSQSCAPGSDPRSNLCALCIGDEQGENKCVPNSNERYYGYTGAFRCLAENAGDVAFVKDVTVLQNTDGNNNEAWAKDLKLADFALLCLDGKRKPVTEARSCHLAMAPNHAVVSRMDKVERLKQVLLHQQAKFGRNGSDCPDKFCLFQSETKNLLFNDNTECLARLHGKTTYEKYLGPQYVAGITNLKKCSTSPLLEACEFLRK
- Log (AVERAGE) (period of incubation 1 hour): 4.13
- dil 10X colony count (period of incubation 1 hour): 303 and 256 and 250
- AVERAGE (period of incubation 1 hour): 13483.33 UFC/ml
- % reduction of Malassezia globosa cells growth (% increase of antimycotic activity) (period of incubation 1 hour): −39.4%
- X50 (calculation made based on the dilution) (period of incubation 1 hour): 15150 UFC/ml and 12800 UFC/ml and 12500 UFC/ml
- Log (AVERAGE) (period of incubation 4 hour): 4.109
- dil 10X colony count (period of incubation 4 hour): 340 and 232 and 200
- AVERAGE (period of incubation 4 hour): 12866.67 UFC/ml
- % reduction of Malassezia globosa cells growth (% increase of antimycotic activity) (period of incubation 4 hour): −695.8%
- X50 (calculation made based on the dilution) (period of incubation 4 hour): 17000 UFC/ml and 11600 UFC/ml and 10000 UFC/ml

Reference: patent publication US20110015120A1, “Pharmaceutical and cosmetic compositions including lactoferrin, ciclopirox, etidronic acid” (VALETUDO S . r . l ., priority 2009, published 2011)
